Measured values reported in EP4086281A1 (China Immunotech (Beijing) Biotechnology Co., Ltd, dated 2022).

Biological target: T1, CD19 expressed by Raji cells (human lymphoma cell line) (human, UniProt P15391 20-556)
T1 construct: whole, on cells; On intact Raji cells in flow cytometry and co-culture; In the western blot it is the denatured protein of a Raji lysate (band of 95kD); also called CD19 protein in the Raji cells
T1 sequence (looked up): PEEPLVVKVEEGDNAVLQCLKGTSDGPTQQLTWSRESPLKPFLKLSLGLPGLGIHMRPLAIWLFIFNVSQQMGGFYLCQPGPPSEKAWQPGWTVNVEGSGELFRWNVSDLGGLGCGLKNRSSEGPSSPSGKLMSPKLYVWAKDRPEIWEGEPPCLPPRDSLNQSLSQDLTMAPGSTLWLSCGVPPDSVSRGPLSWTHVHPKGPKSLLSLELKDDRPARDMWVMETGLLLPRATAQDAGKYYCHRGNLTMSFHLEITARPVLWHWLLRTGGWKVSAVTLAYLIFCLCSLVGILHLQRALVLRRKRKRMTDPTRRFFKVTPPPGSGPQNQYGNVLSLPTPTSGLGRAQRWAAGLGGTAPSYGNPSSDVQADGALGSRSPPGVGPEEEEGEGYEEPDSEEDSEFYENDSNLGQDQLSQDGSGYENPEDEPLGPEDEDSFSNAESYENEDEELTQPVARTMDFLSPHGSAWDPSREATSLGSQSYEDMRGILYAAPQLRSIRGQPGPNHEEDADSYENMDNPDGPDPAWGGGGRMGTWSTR
Assay: flow cytometry on Raji cells, antibody titrated from 0 to 375 nM, curve fitted with GraphPad

B1: monoclonal antibody 334 targeting CD19 (hybridoma CGMCC No. 17095) (antibody, V domains shown)
VH: QVQLQQSGAELVRPGASVKLSCKALGFIFTDYEIHWVKQTPVHGLEWIGAFHPGSGGSAYNQKFKGKATLTADKSSSTAYMELSSLTFEDSAVYHCTRQLGPDWGQGTLVTVS
VL: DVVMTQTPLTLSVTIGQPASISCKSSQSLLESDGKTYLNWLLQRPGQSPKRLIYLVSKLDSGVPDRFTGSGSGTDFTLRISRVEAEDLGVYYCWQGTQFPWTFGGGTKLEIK
notes: it is a hybridoma antibody detected with anti-mouse secondary antibodies
  Kd: 1.53 nM
